In patent US8603466 (KING S COLLEGE LONDON, dated 2013):
Residue numbers refer to the chain shown, from its start.

Tests used:
[1] = biological target: human TSHR on stably transfected CHO cells (human, UniProt P16473 21-764); assay: cell-based or functional assay
[2] = biological target: T1, human TSHR immobilised on coated tubes (TRAK II [DYNOtest human] kit) (human, UniProt P16473 21-764, limits assumed); assay: saturation binding of 125I-IgG on human TSHR coated tubes (TRAK II DYNOtest human); printed as Kd but expressed as reciprocal Kd (L/mol)
T1 construct: Receptor of a bought kit; also called human TSHR coated tubes; immobilized human TSHR
Procedure: Free isotope was removed by gel filtration in SEPHAROSE™ G25 columns and specific activity calculated (7). Antibody affinity was measured by saturation binding analysis. […] The affinity results were expressed as reciprocal Kd values (L/mol).
The labeled IgG and Fab fragments of the mabs were then used as tracers in competition studies to study the epitopes on the receptor. […] Serum from normal individuals, with no family history of autoimmunity were used as controls.

[3] = biological target: T1, human TSHR immobilised on coated tubes …; assay: TBII assay, displacement of 125I-TSH from human TSHR coated tubes (TRAK II DYNOtest human)

B1: KSAb1 IgG (antibody, V domains shown)
VH: EVQLQQSGPELVKPGASMKISCKASGYSFSAYTMNWVKQSHGKNLEWIGLINPYNGGTNYNQEFEGKATLTVNKSSNTAFMELLSLTSDDSAVYYCARRDWDYFDYWGQGTTLTVSS
VL: DIVMTQSQKFMSTSVGDRVSIICKASQNVGTFVAWYQQKPGQSPKLLVYSASNRYTGVPDRFTGSGSGTDFTLTINNMQSEDLADYFCRQYSSYPYTFGGGTKLEI
notes: also called mAb9; IgG 9
EC50 of cAMP stimulation, NaCl-free sucrose HBSS [1]: 9.4 ng/mL
EC50 of cAMP stimulation, physiological NaCl HBSS [1]: 16.5 ng/ml
IgG concentration giving 3 fold cAMP stimulation [1]: 1.2 ng/mL
maximal stimulation of cAMP, fold over basal value [1]: 199 fold over basal
Ka [2]: 4.5e+10 M⁻¹
IC50 [3]: 3.3 ng/mL

B2: KSAb2 IgG (antibody, V domains shown)
VH: B1 VH with S30T, S40T, E63K, G66D, N73D, F80Y, E82D, D89E
VL: DVVMTQSQKFLSTSAGDRVSISCKASQNVGTALAWYQQKPGQSPKLLIYSASNRNTGVPDRFTGRGFGTDFTLTISNMQSEDLADYFCQQYSSYPYTFGGGTRLEI
notes: also called mAb17; IgG17
EC50 of cAMP stimulation, NaCl-free sucrose HBSS [1]: 93 ng/mL
EC50 of cAMP stimulation, physiological NaCl HBSS [1]: 100 ng/ml
IgG concentration giving 3 fold cAMP stimulation [1]: 2.2 ng/mL
maximal stimulation of cAMP, fold over basal value [1]: 183 fold over basal
Ka [2]: 6.25e+10 M⁻¹
IC50 [3]: 10 ng/mL
